Here are results for 20 molecules from patent publication US20210388087A1 (Chugai, published 2021).

T1: Human CD3eg linker (human)
T1 construct: Single-chain construct; also called recombinant human CD3
T1 chain: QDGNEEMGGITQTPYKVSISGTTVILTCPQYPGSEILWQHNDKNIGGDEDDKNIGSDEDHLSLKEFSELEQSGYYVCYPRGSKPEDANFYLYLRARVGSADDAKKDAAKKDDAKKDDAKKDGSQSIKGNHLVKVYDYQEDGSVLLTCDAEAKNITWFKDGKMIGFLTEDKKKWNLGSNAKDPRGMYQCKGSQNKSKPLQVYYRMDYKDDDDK

B1: H183/L072 VL N30E (antibody, name in Kabat numbering, V domains shown)
VH: QVQLVESGGGLVQPGRSLRLSCAASGFTFSNAWMHWVRQAPGKGLEWVAQIKDKGNAYAAYYAPSVKGRFTISRDDSKNSIYLQMNSLKTEDTAVYYCHYVHYASASTVLPAFGVDAWGQGTTVTVSS
VL: DIVMTQSPLSLPVTPGEPASISCQASQELVHMNRETYLHWYQQKPGQAPRLLIYKVSNRFPGVPDRFSGSGSGTDFTLKISRVEAEDVGVYYCAQGTSVPFTFGQGTKLEIK
B2: H183/L072 VL N53D (antibody, name in Kabat numbering, V domains shown)
VH: QVQLVESGGGLVQPGRSLRLSCAASGFTFSNAWMHWVRQAPGKGLEWVAQIKDKGNAYAAYYAPSVKGRFTISRDDSKNSIYLQMNSLKTEDTAVYYCHYVHYASASTVLPAFGVDAWGQGTTVTVSS
VL: DIVMTQSPLSLPVTPGEPASISCQASQELVHMNRNTYLHWYQQKPGQAPRLLIYKVSDRFPGVPDRFSGSGSGTDFTLKISRVEAEDVGVYYCAQGTSVPFTFGQGTKLEIK
B3: H183/L072 VL N30K (antibody, name in Kabat numbering, V domains shown)
VH: QVQLVESGGGLVQPGRSLRLSCAASGFTFSNAWMHWVRQAPGKGLEWVAQIKDKGNAYAAYYAPSVKGRFTISRDDSKNSIYLQMNSLKTEDTAVYYCHYVHYASASTVLPAFGVDAWGQGTTVTVSS
VL: DIVMTQSPLSLPVTPGEPASISCQASQELVHMNRKTYLHWYQQKPGQAPRLLIYKVSNRFPGVPDRFSGSGSGTDFTLKISRVEAEDVGVYYCAQGTSVPFTFGQGTKLEIK
B4: H183/L072 VL N30G (antibody, name in Kabat numbering, V domains shown)
VH: QVQLVESGGGLVQPGRSLRLSCAASGFTFSNAWMHWVRQAPGKGLEWVAQIKDKGNAYAAYYAPSVKGRFTISRDDSKNSIYLQMNSLKTEDTAVYYCHYVHYASASTVLPAFGVDAWGQGTTVTVSS
VL: DIVMTQSPLSLPVTPGEPASISCQASQELVHMNRGTYLHWYQQKPGQAPRLLIYKVSNRFPGVPDRFSGSGSGTDFTLKISRVEAEDVGVYYCAQGTSVPFTFGQGTKLEIK
B5: H183/L072 VL N30H (antibody, name in Kabat numbering, V domains shown)
VH: QVQLVESGGGLVQPGRSLRLSCAASGFTFSNAWMHWVRQAPGKGLEWVAQIKDKGNAYAAYYAPSVKGRFTISRDDSKNSIYLQMNSLKTEDTAVYYCHYVHYASASTVLPAFGVDAWGQGTTVTVSS
VL: DIVMTQSPLSLPVTPGEPASISCQASQELVHMNRHTYLHWYQQKPGQAPRLLIYKVSNRFPGVPDRFSGSGSGTDFTLKISRVEAEDVGVYYCAQGTSVPFTFGQGTKLEIK
B6: H183/L072 VL N30S (antibody, name in Kabat numbering, V domains shown)
VH: QVQLVESGGGLVQPGRSLRLSCAASGFTFSNAWMHWVRQAPGKGLEWVAQIKDKGNAYAAYYAPSVKGRFTISRDDSKNSIYLQMNSLKTEDTAVYYCHYVHYASASTVLPAFGVDAWGQGTTVTVSS
VL: DIVMTQSPLSLPVTPGEPASISCQASQELVHMNRSTYLHWYQQKPGQAPRLLIYKVSNRFPGVPDRFSGSGSGTDFTLKISRVEAEDVGVYYCAQGTSVPFTFGQGTKLEIK
B7: H183/L072 VL N30F (antibody, name in Kabat numbering, V domains shown)
VH: QVQLVESGGGLVQPGRSLRLSCAASGFTFSNAWMHWVRQAPGKGLEWVAQIKDKGNAYAAYYAPSVKGRFTISRDDSKNSIYLQMNSLKTEDTAVYYCHYVHYASASTVLPAFGVDAWGQGTTVTVSS
VL: DIVMTQSPLSLPVTPGEPASISCQASQELVHMNRFTYLHWYQQKPGQAPRLLIYKVSNRFPGVPDRFSGSGSGTDFTLKISRVEAEDVGVYYCAQGTSVPFTFGQGTKLEIK
B8: H183/L072 VL N53A (antibody, name in Kabat numbering, V domains shown)
VH: QVQLVESGGGLVQPGRSLRLSCAASGFTFSNAWMHWVRQAPGKGLEWVAQIKDKGNAYAAYYAPSVKGRFTISRDDSKNSIYLQMNSLKTEDTAVYYCHYVHYASASTVLPAFGVDAWGQGTTVTVSS
VL: DIVMTQSPLSLPVTPGEPASISCQASQELVHMNRNTYLHWYQQKPGQAPRLLIYKVSARFPGVPDRFSGSGSGTDFTLKISRVEAEDVGVYYCAQGTSVPFTFGQGTKLEIK
B9: H183/L072 VL N30Y (antibody, name in Kabat numbering, V domains shown)
VH: QVQLVESGGGLVQPGRSLRLSCAASGFTFSNAWMHWVRQAPGKGLEWVAQIKDKGNAYAAYYAPSVKGRFTISRDDSKNSIYLQMNSLKTEDTAVYYCHYVHYASASTVLPAFGVDAWGQGTTVTVSS
VL: DIVMTQSPLSLPVTPGEPASISCQASQELVHMNRYTYLHWYQQKPGQAPRLLIYKVSNRFPGVPDRFSGSGSGTDFTLKISRVEAEDVGVYYCAQGTSVPFTFGQGTKLEIK
B10: H183/L072 VL N53F (antibody, name in Kabat numbering, V domains shown)
VH: QVQLVESGGGLVQPGRSLRLSCAASGFTFSNAWMHWVRQAPGKGLEWVAQIKDKGNAYAAYYAPSVKGRFTISRDDSKNSIYLQMNSLKTEDTAVYYCHYVHYASASTVLPAFGVDAWGQGTTVTVSS
VL: DIVMTQSPLSLPVTPGEPASISCQASQELVHMNRNTYLHWYQQKPGQAPRLLIYKVSFRFPGVPDRFSGSGSGTDFTLKISRVEAEDVGVYYCAQGTSVPFTFGQGTKLEIK
B11: H183/L072 VL N53G (antibody, name in Kabat numbering, V domains shown)
VH: QVQLVESGGGLVQPGRSLRLSCAASGFTFSNAWMHWVRQAPGKGLEWVAQIKDKGNAYAAYYAPSVKGRFTISRDDSKNSIYLQMNSLKTEDTAVYYCHYVHYASASTVLPAFGVDAWGQGTTVTVSS
VL: DIVMTQSPLSLPVTPGEPASISCQASQELVHMNRNTYLHWYQQKPGQAPRLLIYKVSGRFPGVPDRFSGSGSGTDFTLKISRVEAEDVGVYYCAQGTSVPFTFGQGTKLEIK
B12: H183/L072 VL N30Q (antibody, name in Kabat numbering, V domains shown)
VH: QVQLVESGGGLVQPGRSLRLSCAASGFTFSNAWMHWVRQAPGKGLEWVAQIKDKGNAYAAYYAPSVKGRFTISRDDSKNSIYLQMNSLKTEDTAVYYCHYVHYASASTVLPAFGVDAWGQGTTVTVSS
VL: DIVMTQSPLSLPVTPGEPASISCQASQELVHMNRQTYLHWYQQKPGQAPRLLIYKVSNRFPGVPDRFSGSGSGTDFTLKISRVEAEDVGVYYCAQGTSVPFTFGQGTKLEIK
B13: H183/L072 VL N53E (antibody, name in Kabat numbering, V domains shown)
VH: QVQLVESGGGLVQPGRSLRLSCAASGFTFSNAWMHWVRQAPGKGLEWVAQIKDKGNAYAAYYAPSVKGRFTISRDDSKNSIYLQMNSLKTEDTAVYYCHYVHYASASTVLPAFGVDAWGQGTTVTVSS
VL: DIVMTQSPLSLPVTPGEPASISCQASQELVHMNRNTYLHWYQQKPGQAPRLLIYKVSERFPGVPDRFSGSGSGTDFTLKISRVEAEDVGVYYCAQGTSVPFTFGQGTKLEIK
B14: H183/L072 VL N30L (antibody, name in Kabat numbering, V domains shown)
VH: QVQLVESGGGLVQPGRSLRLSCAASGFTFSNAWMHWVRQAPGKGLEWVAQIKDKGNAYAAYYAPSVKGRFTISRDDSKNSIYLQMNSLKTEDTAVYYCHYVHYASASTVLPAFGVDAWGQGTTVTVSS
VL: DIVMTQSPLSLPVTPGEPASISCQASQELVHMNRLTYLHWYQQKPGQAPRLLIYKVSNRFPGVPDRFSGSGSGTDFTLKISRVEAEDVGVYYCAQGTSVPFTFGQGTKLEIK
B15: H183/L072 VL N30T (antibody, name in Kabat numbering, V domains shown)
VH: QVQLVESGGGLVQPGRSLRLSCAASGFTFSNAWMHWVRQAPGKGLEWVAQIKDKGNAYAAYYAPSVKGRFTISRDDSKNSIYLQMNSLKTEDTAVYYCHYVHYASASTVLPAFGVDAWGQGTTVTVSS
VL: DIVMTQSPLSLPVTPGEPASISCQASQELVHMNRTTYLHWYQQKPGQAPRLLIYKVSNRFPGVPDRFSGSGSGTDFTLKISRVEAEDVGVYYCAQGTSVPFTFGQGTKLEIK
B16: H183/L072 VL N30M (antibody, name in Kabat numbering, V domains shown)
VH: QVQLVESGGGLVQPGRSLRLSCAASGFTFSNAWMHWVRQAPGKGLEWVAQIKDKGNAYAAYYAPSVKGRFTISRDDSKNSIYLQMNSLKTEDTAVYYCHYVHYASASTVLPAFGVDAWGQGTTVTVSS
VL: DIVMTQSPLSLPVTPGEPASISCQASQELVHMNRMTYLHWYQQKPGQAPRLLIYKVSNRFPGVPDRFSGSGSGTDFTLKISRVEAEDVGVYYCAQGTSVPFTFGQGTKLEIK
B17: H183/L072 VL N30W (antibody, name in Kabat numbering, V domains shown)
VH: QVQLVESGGGLVQPGRSLRLSCAASGFTFSNAWMHWVRQAPGKGLEWVAQIKDKGNAYAAYYAPSVKGRFTISRDDSKNSIYLQMNSLKTEDTAVYYCHYVHYASASTVLPAFGVDAWGQGTTVTVSS
VL: DIVMTQSPLSLPVTPGEPASISCQASQELVHMNRWTYLHWYQQKPGQAPRLLIYKVSNRFPGVPDRFSGSGSGTDFTLKISRVEAEDVGVYYCAQGTSVPFTFGQGTKLEIK
B18: H183/L072 VL N30R (antibody, name in Kabat numbering, V domains shown)
VH: QVQLVESGGGLVQPGRSLRLSCAASGFTFSNAWMHWVRQAPGKGLEWVAQIKDKGNAYAAYYAPSVKGRFTISRDDSKNSIYLQMNSLKTEDTAVYYCHYVHYASASTVLPAFGVDAWGQGTTVTVSS
VL: DIVMTQSPLSLPVTPGEPASISCQASQELVHMNRRTYLHWYQQKPGQAPRLLIYKVSNRFPGVPDRFSGSGSGTDFTLKISRVEAEDVGVYYCAQGTSVPFTFGQGTKLEIK
B19: H183/L072 VL N30I (antibody, name in Kabat numbering, V domains shown)
VH: QVQLVESGGGLVQPGRSLRLSCAASGFTFSNAWMHWVRQAPGKGLEWVAQIKDKGNAYAAYYAPSVKGRFTISRDDSKNSIYLQMNSLKTEDTAVYYCHYVHYASASTVLPAFGVDAWGQGTTVTVSS
VL: DIVMTQSPLSLPVTPGEPASISCQASQELVHMNRITYLHWYQQKPGQAPRLLIYKVSNRFPGVPDRFSGSGSGTDFTLKISRVEAEDVGVYYCAQGTSVPFTFGQGTKLEIK
B20: H183/L072 VL N30V (antibody, name in Kabat numbering, V domains shown)
VH: QVQLVESGGGLVQPGRSLRLSCAASGFTFSNAWMHWVRQAPGKGLEWVAQIKDKGNAYAAYYAPSVKGRFTISRDDSKNSIYLQMNSLKTEDTAVYYCHYVHYASASTVLPAFGVDAWGQGTTVTVSS
VL: DIVMTQSPLSLPVTPGEPASISCQASQELVHMNRVTYLHWYQQKPGQAPRLLIYKVSNRFPGVPDRFSGSGSGTDFTLKISRVEAEDVGVYYCAQGTSVPFTFGQGTKLEIK

For this test, the target named is T1, Human CD3eg linker. Put plainly: SPR; fold vs parent H183/L072. (SPR reads the build-up and loss of mass on a sensor chip optically.)
As to B1, the “fold change of affinity” value amounted to 0.3 fold. With B2, the “fold change of affinity” value is 0.2 fold. Turning to B3, the “fold change of affinity” value is 1.3 fold. Regarding B4, the “fold change of affinity” value worked out at 0 fold. The same measure for B5: 0.8 fold. In the case of B6, the “fold change of affinity” value was found to be 0 fold. B7: the “fold change of affinity” value turned out to be 0.9 fold. B8: the “fold change of affinity” value is 0.6 fold.

B9: the “fold change of affinity” value was determined as 0.8 fold. B10: the “fold change of affinity” value was found to be 0.7 fold. As for B11, the “fold change of affinity” value came out at 0.6 fold.

B12: the “fold change of affinity” value stood at 1.2 fold.

For B13, the “fold change of affinity” value came to 0.5 fold. Take B14: the “fold change of affinity” value was 0.5 fold. Regarding B15, the “fold change of affinity” value stood at 0.1 fold. Consider B16, for which the “fold change of affinity” value came to 1.6 fold. For B17, the “fold change of affinity” value worked out at 0.9 fold. For the molecule B18, the “fold change of affinity” value worked out at 1.5 fold. In the case of B19, the “fold change of affinity” value was found to be 0.5 fold. On to B20, for which the “fold change of affinity” value turned out to be 0.5 fold.
